{"source": "the DeepSol protein solubility set", "data": [{"experiment": "soluble on expression in E. coli; label from the status in PepcDB or PDB records", "values": [{"sequence": "MEVDKKDEREAESSEQVVNPWEVSAKDGGKIDYDKLIDKFGCQRLDESLIDRVQRLTSRQPHVFLRRSVFFAHRDFNEILDAYERGDKFYLYTGRGPSSEALHLGHLIPFMFTKYLQEAFKVPLVIQLTDDEKSIWKNLSVEESQRLARENAKDIIACGFDVTKTFIFSDFDYVGGAFYKNMVKVGKCVTLNKAMGIFGFSGEDPIAKLSFPPVQAVPSFPSSFPHLFPGKDNLRCLIPCAIDQDPYFRMTRDVAPRLGYSKPALIESTFFPALQGENGKMSASDPNSAIYVTDSAKDIKNKINRYAFSGGQDSIEKHRELGANLEVDIPVKYLSFFLEDDSELEHIKKEYGEGRMLTGEVKKRLTEVLTEIVERHRRARAAVTDEMVDAFMAVRPLPSMFE", "soluble on expression in E. coli": "soluble"}, {"sequence": "MPKGSGKVIAQNKKAFHDYFIEETYEAGLVLQGTEIKSIRAGRVNLKDAFARVHNGEVWVHNMHISTYEQGNRFNHDPLRTRKLLLHKKEIEKLAGASKETGYALVPVRIYLKNGFAKMALGLAKGKKQYDKRHDLKEKEAKREIARAFRDRQKM", "soluble on expression in E. coli": "not soluble"}, {"sequence": "MGSDKIHHHHHHMLSLTEQLNRGPVVSDGAMATELEKRGVATNSALWSATAMLDHPDAIQAVHQSYLDAGAKIMTTNTYQANVPAFEQAGIAAVQARQLIQQAVTIAHTARDASHVTDAVIAGSIGPYGAYLADGSEYTGAYQLTPSAYQDFHRERLALIMAAGVDVLALETMPRLDEVQALVQLITTTWPQQPYWVSFSIKDPQTLCDGTSLAVAAKWVAAQPNVVAVGVNCTTLENIAPALTTLKAAVAVPLIVYPNSGDQYDPVTKTWQETHLSHQFASFVPQWLAAGARIIGGCCRTTPKDIATVARALSVSDSAKL", "soluble on expression in E. coli": "not soluble"}, {"sequence": "MCGIFAYLNFLTPKKRSEIVDILVQGLQRMEYRGYDSAGIAIDGSNEIESPHSSVALLRKAGKVSVLSDFIKESSSDLDMDMEYNIHCGIAHTRWATHGSPRDVNSHPHRSNDKNEFLVVHNGIITNYREIKEYLEKKGHKFESETDTEVIAKLAQHIHDRYPDFSFRQLVETVIQQLEGAFALAFKSSRFPGQLVASRRGSPLLVGIKSNSRLQTNHFPVSFSKDAGWKWGDEKQTDGRRFMSNHATHLRDETSFVETPNNILDLSIAVRSSNGSAKMEISDSTTAVRPFDSDDWEVEYFVASDAAAIIEHTKQVLFLEDDDVAFVEDGALTIHRISRHADNGEQKREVKLLEMELQEIMKGSFKTYMQKEIFEQPDSVVNTMRGRVLPSGQVVLGGIKEYLPDIKRCRRLIMVACGTSYHSAIACRQILEELSELPVVVELASDFLDRETPIFRDDVCLFISQSGETADTLLALRYCKPRGALTIGVTNTVGSSICRESHCGIHINAGPEIGVASTKAYTSQILSLLMFALTLSDDRISMAKRREEIIDALNDLPELIREVLQLDEKVLDIAKQIYKEKSLLIMGRGLNFATCLEGALKIKELSYMHCEGIMSGELKHGPLAMVDEFLSICMVVCNDRVYKKSLNALQQVVARKGAPIIIADCTVPEGDLAGMKHILRVPKTVDCVQNILTVIPLQLLSYHIAELNGANVDRPRNLAKSVTVE", "soluble on expression in E. coli": "not soluble"}, {"sequence": "MVSNAYQGIGSEYETLLKASGRENEVFKKRVGKDRVMATTVHGWWQETMWQRSSSLFTDGRICSCWRLSPTSSRGLQPTYQRKRDFTTGRYGKNACG", "soluble on expression in E. coli": "not soluble"}, {"sequence": "MAARKLIARINPTNSALFVCDLQEKFASNIKYFPEIITTSRRLIDAARILSIPTIVTEQYPKGLGHTVPTLKEGLAENTPIFDKTKFSMCIPPTEDTLKKVQNVILVGIEAHVCVLQTTYDLLERGLNVHVVVDAVSSRSHTDRHFAFKQMEQAGAILTTSEATILGLVGGSDHPKFKEVQKLILTSAPDTGLVPLSKL", "soluble on expression in E. coli": "soluble"}, {"sequence": "MGGSHHHHHHGMASALASEAPSPPRSPPPPTSPEPELAQLRRKVEKLERELRSCKRQVREIEKLLHHTERLYQNAESNNQELRTQVRGPPQPRAPSSPGEAFEARDSLGRGPWQGLRTTVEYLK", "soluble on expression in E. coli": "not soluble"}, {"sequence": "MSLNRNHPANGWPLALLLAATLALHGCNEPTAATAAPANTTRHGDYTPLTVQHKLGTTVISQLPQRTVALDMNEVDFLDQLGVPVAGMPKDFVPDFLARYKDAGQTADVGSIVQPNLERVHAARPDLILITSLQANHYDELSEMAPTLHFDVDYRDSETGHVAMVRQHLLSLGQVFGKQGLAQRKADALEAKLAQARSVTRDRPERALVVLHNNGAFSAFGVQSRYGFIFNDLGVKPATTTLDTGLHGQPISSEFIQQANPDILYVVDRTAVMEHRPMMTADTLDNPLLRQTNAWKHGRVVFVDPQAWYVTAASPTSLALIADDVIRGYQDEGHHHHHH", "soluble on expression in E. coli": "soluble"}]}]}
